{"source": "paper doi:10.1101/2025.06.24.661325", "target": "M. tuberculosis MmpL5 Δ494-688 with C-terminal GFP-FLAG tag (M. tuberculosis) (UniProt P9WJV1)", "assay": "cryo-EM structure"}
{"substance": "M. tuberculosis MmpL5 Δ494-688 with C-terminal GFP-FLAG tag (from UniProt P9WJV1 1-964) (natural protein)", "values": [{"measurement": "stoichiometry N", "value": 3}]}
